Source: patent US20230183793
Where two headings read alike, the source gives them in different places.

Key:
[1] = biological target: T1, Dcm N436K (Escherichia coli) (UniProt P0AED9); assay: cell_activity; conditions: CCWGG sites carboxymethylated; also makes 5mC
T1 sequence: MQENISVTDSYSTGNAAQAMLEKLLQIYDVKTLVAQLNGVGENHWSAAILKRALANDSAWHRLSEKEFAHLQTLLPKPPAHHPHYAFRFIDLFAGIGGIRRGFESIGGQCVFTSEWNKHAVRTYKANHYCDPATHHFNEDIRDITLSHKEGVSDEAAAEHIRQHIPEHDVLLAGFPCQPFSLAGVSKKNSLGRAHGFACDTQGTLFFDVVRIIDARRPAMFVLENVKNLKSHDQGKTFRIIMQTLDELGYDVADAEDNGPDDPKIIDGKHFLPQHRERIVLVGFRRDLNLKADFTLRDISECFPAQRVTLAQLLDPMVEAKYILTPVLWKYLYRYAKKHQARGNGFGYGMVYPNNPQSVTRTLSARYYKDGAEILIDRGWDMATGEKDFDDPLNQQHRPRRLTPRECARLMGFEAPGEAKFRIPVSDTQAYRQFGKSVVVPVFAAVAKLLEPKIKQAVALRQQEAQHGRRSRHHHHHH

[2] = tested on: M.MpeI N374K (Mycoplasma penetrans); conditions: 5mC on one strand of CpG; CxSAM preferred over SAM 1.3-fold; HpaII protection assay
[3] = tested on: M.MpeI N374K (Mycoplasma penetrans); conditions: CpGs converted to 5cxmC with CxSAM; ~60% 5mC with SAM; bisulfite sequencing
[4] = tested on: M.MpeI N374K (Mycoplasma penetrans); conditions: CpGs modified with SAM or CxSAM, bisulfite sequencing
[5] = tested on: M.MpeI WT K374N (reversion to wild type) (Mycoplasma penetrans); conditions: CpGs modified with SAM; no transfer with CxSAM

E. coli genomic DNA (dam-/dcm-) showed an activity [1] of over 1.5%.

“hemimethylated CpG fluorophore-labelled oligonucleotide” was tested, and the binding signal [2] was 1.3 fold.

Substance lambda phage genomic DNA, unmethylated has an activity [3] of 50%.

pUC19 plasmid DNA was tested, and the activity [4] was over 70% and the activity [5] was 100%.
